In the supplement of paper PMC7877785:
± gives the uncertainty stated by the source.

Test: self-splicing fitness, log relative to wild type (ln ratio); higher = more splicing; Tetrahymena group I intron in knt gene, E. coli kanamycin selection, DiMSum; sequences stand for … in CUCUCU…GGAGGGAAAAGUUAUCAGGCAUGCACCUGGUAGCUAGUCUUUAAACCAAUAGAUUGCAUCGGUUUAAAAGGCAAGACCGUCAAAUUGCGGGAAAGGGGUCAACAGCCGUUCAGUACCAAGUCUCAGGGGAAACUUUGAGAUGGCCUUGCAAAGGGUAUGGUAAUAAGCUGACGGACAUGGUCCUAACCACGCAGCCAAGUCCUAAGUCAACAGAUCUUCUGUUGAUAUGGAUGCAGUUCACAGACUAAAUGUCGGUCGGGGAAGAUGUAUUCUUCUCAUAAGAUAUAGUCGGACCUCUCCUUAAUGGGAGCUAGCGGAUGAAGUGAUGCAACACUGGAGCCGCUGGGAACUAAUUUGUAUGCGAAAGUAUAUUGAUUAGUUUUGGAGUACUCGUGGUCG
How it was run: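 Fitness was computed with DiMSum as the error-weighted combination of replicate fold changes, kanamycin versus none, each normalised to wild type. The library randomised all eight intron nucleotides of the P1ex region, with the intron placed in the knt kanamycin-resistance gene on pET-22b(+) in E. coli BL21(DE3). Six replicate transformations were grown overnight at 37°C or 30°C on LB agar with or without 25 μg/mL kanamycin, plus 100 μg/mL carbenicillin, 50 μM IPTG and 0.2% rhamnose. Pooled colonies were amplicon-sequenced on an Illumina HiSeq 2500.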

Sequence	self-splicing fitness (ln) (30 °C)	self-splicing fitness (ln) (37 °C)
UGCAAGCAAUAUUACGUUUA	-1.49 ± 0.076	-0.234 ± 0.072
GUCAAGCAAUAUUACGAUUG	–	-3.59 ± 0.34
CCCGAGCAAUAUUACGAGGC	-2.89 ± 0.28	-2.47 ± 0.27
AGGCAGCAAUAUUACGCUAC	-2.44 ± 0.23	–
ACGUAGCAAUAUUACGAACU	-0.677 ± 0.059	-0.266 ± 0.082
CAGAAGCAAUAUUACGUUCG	-0.642 ± 0.051	0.234 ± 0.064
GAACAGCAAUAUUACGGCAG	-2.31 ± 0.12	-3.02 ± 0.24
UGGGAGCAAUAUUACGCGUG	-2.51 ± 0.12	-1.67 ± 0.12
GUUCAGCAAUAUUACGCGAC	-3.9 ± 0.29	-1.22 ± 0.29
GUAAAGCAAUAUUACGGUAC	-1.61 ± 0.12	-1.26 ± 0.18
UGCUAGCAAUAUUACGCGGG	-3.41 ± 0.28	-2.38 ± 0.31
AAUAAGCAAUAUUACGGCCU	-0.0966 ± 0.09	-0.0762 ± 0.13
CCGCAGCAAUAUUACGCUUG	-3 ± 0.12	-2.84 ± 0.16
UAGUAGCAAUAUUACGAGUG	-1.66 ± 0.081	-0.549 ± 0.083
GGGCAGCAAUAUUACGAAGU	-1.95 ± 0.14	-0.794 ± 0.21
GAGGAGCAAUAUUACGGCCG	–	-1.55 ± 0.39
GACUAGCAAUAUUACGGUGA	-1.07 ± 0.11	-0.694 ± 0.097
GUGAAGCAAUAUUACGCUCU	-1.79 ± 0.12	-0.652 ± 0.13
CUGGAGCAAUAUUACGUCCA	–	-2.26 ± 0.44
CAACAGCAAUAUUACGCACG	-0.598 ± 0.067	0.246 ± 0.094
CGCGAGCAAUAUUACGUCUC	-3.71 ± 0.35	-2.28 ± 0.33
UGUGAGCAAUAUUACGAAUC	-2.91 ± 0.38	–
CUAAAGCAAUAUUACGUGAC	-1.12 ± 0.051	-0.411 ± 0.078
AUUGAGCAAUAUUACGAACC	–	-2.31 ± 0.46
GUAAAGCAAUAUUACGCUAC	-4.2 ± 0.32	-1.87 ± 0.37
AAUAAGCAAUAUUACGCCCU	-0.352 ± 0.12	0.525 ± 0.15

Sequence	self-splicing fitness (ln) (30 °C)	self-splicing fitness (ln) (37 °C)
UCUCAGCAAUAUUACGCUGU	-2.3 ± 0.21	-1.17 ± 0.31
AGUCAGCAAUAUUACGUGUU	-0.875 ± 0.061	-0.392 ± 0.096
ACCCAGCAAUAUUACGGUCC	-1.61 ± 0.085	-1.4 ± 0.12
CCGUAGCAAUAUUACGGGUG	-3.59 ± 0.21	-2.11 ± 0.16
AGGCAGCAAUAUUACGUUGU	-2.88 ± 0.15	-2.52 ± 0.21
GUGAAGCAAUAUUACGUUAU	-1.15 ± 0.08	-1.2 ± 0.11
UUAAAGCAAUAUUACGGGUC	-3.44 ± 0.22	-2.48 ± 0.24
UAUCAGCAAUAUUACGGCAU	-1.14 ± 0.071	-0.0824 ± 0.075
UUGUAGCAAUAUUACGAUGA	-0.47 ± 0.13	0.0216 ± 0.12
GGCAAGCAAUAUUACGCGUC	-3.66 ± 0.34	-2.74 ± 0.36
AUGAAGCAAUAUUACGAGUA	-2.12 ± 0.079	-0.848 ± 0.088
UAUAAGCAAUAUUACGAACC	-2.5 ± 0.41	-1.51 ± 0.32
GGUUAGCAAUAUUACGCCAA	-1.42 ± 0.34	-2.43 ± 0.33
GGGUAGCAAUAUUACGCACU	-3.8 ± 0.47	-0.577 ± 0.29
UCAGAGCAAUAUUACGUACU	-3.35 ± 0.34	-2.24 ± 0.3
GUAAAGCAAUAUUACGGGGU	-3.02 ± 0.19	-2.25 ± 0.21
AACUAGCAAUAUUACGACUU	-0.0929 ± 0.069	0.236 ± 0.09
UGGUAGCAAUAUUACGGGAC	–	-2.89 ± 0.27
AGUGAGCAAUAUUACGACAU	-1.07 ± 0.014	-0.531 ± 0.034
GUUUAGCAAUAUUACGGCGG	-3.27 ± 0.44	–
UGAGAGCAAUAUUACGUUAC	–	-1.79 ± 0.3
AUGUAGCAAUAUUACGGCAU	-1.88 ± 0.12	-1.69 ± 0.16
CCGCAGCAAUAUUACGCUAC	-4.14 ± 0.28	-2.37 ± 0.23
AUCUAGCAAUAUUACGAACC	-1.08 ± 0.18	-0.855 ± 0.2
CGCGAGCAAUAUUACGAGUG	-3.46 ± 0.31	-1.78 ± 0.2
CUUUAGCAAUAUUACGUUGG	-3.1 ± 0.24	-1.86 ± 0.27

Sequence	self-splicing fitness (ln) (30 °C)	self-splicing fitness (ln) (37 °C)
AUGGAGCAAUAUUACGGAUU	-2.09 ± 0.13	0.177 ± 0.13
UGGGAGCAAUAUUACGCUAA	-2.74 ± 0.29	-1.93 ± 0.31
ACGUAGCAAUAUUACGAUCA	-0.757 ± 0.1	-0.359 ± 0.086
GGAAAGCAAUAUUACGAAGU	-2.79 ± 0.16	-1.97 ± 0.18
UUACAGCAAUAUUACGAGCC	-2.86 ± 0.44	-1.13 ± 0.31
UUGAAGCAAUAUUACGUAUU	-2.69 ± 0.12	-0.933 ± 0.12
AGUGAGCAAUAUUACGCCGC	-1.96 ± 0.25	-0.183 ± 0.22
CCUCAGCAAUAUUACGCCUA	-2.6 ± 0.21	-1.6 ± 0.2
AACAAGCAAUAUUACGUUGG	-3.76 ± 0.13	-3.31 ± 0.18
UGACAGCAAUAUUACGUUUC	-1.65 ± 0.29	-1.5 ± 0.33
AGUCAGCAAUAUUACGACCA	-0.2 ± 0.12	0.345 ± 0.14
GUAGAGCAAUAUUACGGGGA	-3.54 ± 0.25	-1.16 ± 0.29
GCUUAGCAAUAUUACGUUGA	-2.65 ± 0.2	-1.15 ± 0.16
AUGAAGCAAUAUUACGAGGC	-4.11 ± 0.27	-2.77 ± 0.23
UCUGAGCAAUAUUACGUGUC	-4.14 ± 0.32	–
GCCCAGCAAUAUUACGGAAC	-1 ± 0.055	-0.0936 ± 0.079
ACCGAGCAAUAUUACGGAUU	-3.51 ± 0.16	-1.94 ± 0.16
UUUUAGCAAUAUUACGCAAU	-2.98 ± 0.41	–
UAGUAGCAAUAUUACGACGG	-1.21 ± 0.16	-0.306 ± 0.21
GUAUAGCAAUAUUACGAUAU	-2.87 ± 0.32	-0.832 ± 0.36
UCGCAGCAAUAUUACGACGG	-1.15 ± 0.069	-0.0065 ± 0.1
CACUAGCAAUAUUACGUACG	-0.239 ± 0.071	0.494 ± 0.083
GUGAAGCAAUAUUACGACAA	0.0822 ± 0.12	0.396 ± 0.16
CAAGAGCAAUAUUACGAGAG	-3.74 ± 0.16	-1.83 ± 0.13
ACAUAGCAAUAUUACGACAA	-0.573 ± 0.12	-0.73 ± 0.12
GAUAAGCAAUAUUACGGAUC	-1.37 ± 0.18	-0.674 ± 0.25
